Experimental findings from WO2006003999A1 (dated 2006) are described below.

For assay [1], the target named is T1, human B7RP-1-Fc (human, UniProt O75144 19-256, limits assumed).
T1 construct: not shown: Fc part
T1 sequence (looked up): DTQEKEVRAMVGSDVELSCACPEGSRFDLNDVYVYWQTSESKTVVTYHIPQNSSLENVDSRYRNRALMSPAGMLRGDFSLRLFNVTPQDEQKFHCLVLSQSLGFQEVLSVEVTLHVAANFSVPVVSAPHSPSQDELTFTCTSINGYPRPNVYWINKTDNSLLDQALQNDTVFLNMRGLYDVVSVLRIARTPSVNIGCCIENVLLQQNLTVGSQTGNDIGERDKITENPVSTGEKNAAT
Kind of assay: SPR (BIAcore), ICOS-Fc immobilised on CM5, B7RP-1-Fc injected. (SPR reads the build-up and loss of mass on a sensor chip optically.)

Assay [2] addresses T1, human B7RP-1-Fc. Kind of assay: SPR (BIAcore), B7RP-1-Fc immobilised on CM5 or captured by anti-human Fc F(ab')2, scFv injected at 100 nM.

B1: ICOS-Fc (Fc fusion, human, UniProt Q9Y6W8 21-140, looked up)
chain: EINGSANYEMFIFHNGGVQILCKYPDIVQQFKMQLLKGGQILCDLTKTKGSGNTVSIKSLKFCHSQLSNNSVSFFLYNLDHSHANYYFCNLSIFDPPPFKVTLTGGYLHIYESQLCCQLK
notes: also called ICOS (Inducible costimulator) Fc fusion; biotin-labeled ICOS-Fc; not shown: Fc part
The Kd is a measure of binding affinity in units of concentration. Take B1: the dissociation constant Kd with human B7RP-1-Fc [1] was roughly 7 nM.

B2: human anti-human B7RP-1 single-chain Fv antibody clone 223 (scFv, part only; not given: linker and E tag, not shown: small tags and cut ends)
scFv, part: EVQLLQSGADVKKPGASVKVSCTASGYTFTAYYLNWVRQAPGQGLEWMGWLNPTSGDTYYAQKFQGRVTMTRDTSINTAYMELSSLKSDDTAVYYCARDIRSIEVPFDLWGQGTLVTVSSGIVLTQSPGTLSLSPGERVALSCRASQSVTSSFVAWYQQKPGQTPRLLVYGASSRVPGIPDRFSGNGSGTDFTLTITRLEPEDFAIYYCQYYGDSPYTFGQGTKVDIKR
In turn, B2 showed a dissociation constant (Kd) with human B7RP-1-Fc [2] of 13 to 15 nM.
